Laboratory results from the supplement of paper PMC9170038.

Test system: MS2 coat protein
Test: apparent KD of MS2 coat protein; designed switch direction (-1 OFF switch, 1 ON switch): 1; higher = weaker reporter binding
Method in brief: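 The reported apparent KD is a per-design median over clusters, from curve fits of normalised cluster fluorescence. Protein titrations used SNAP-549-labelled MS2 coat protein, doubled from 0.7 or 1.5 nM to 3 µM, in Tris-HCl pH 7.5 buffer with KCl, MgCl2, BSA, DTT, tRNA and Tween-20, with no input, 200 uM small-molecule ligand, or an oligonucleotide input. The RNA switches were transcribed on Illumina chips by stalled E. coli RNA polymerase.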

[1] = input ligand: microRNA oligo, concentration not stated
[2] = Eterna round: R95, input ligand: FMN 200 uM
[3] = Eterna round: R95, input ligand: microRNA oligo, concentration not stated
[4] = Eterna round: R95, input ligand: none

| Sequence | apparent KD of MS2 coat protein [1] [µM] | apparent KD of MS2 coat protein [2] [µM] | apparent KD of MS2 coat protein [3] [µM] | apparent KD of MS2 coat protein [4] [µM] | apparent KD of MS2 coat protein (input ligand: FMN 200 uM) [µM] | apparent KD of MS2 coat protein (input ligand: none) [µM] |
| --- | --- | --- | --- | --- | --- | --- |
| UUGAAGAAUUAAGGAUAUUGAUUACAUAUGUUAAACAUGAGGAUCACCCAUGUGGGUUGCGGUAUCGAGAAGGUAAAUUAAUAG [Mat - same State NG 2 - JL mod - D77] (Eterna round: R96, puzzle: Same State NG 2) | 0.0896 | – | – | – | – | – |
| GUAAGGCAAGCUUUUUUCUCGUAGUGUAAACAUGAGGAUCACCCAUGUGCUCGCCCUGGACCUUUGGAUCGCAGAAA [Tiesmain] (puzzle: Sensor for hsa-mir-208a) | – | 0.0364 | 0.0222 | 0.0463 | – | – |
| GGUCCAGCCUGAGCUGGACAAAGGCAUGUACAUGAGGAUCACCCAUGUCAUGUACAAGCUUUUUGCUCGUCUUAAAA [JL mod - D87 - 3] (puzzle: Sensor for hsa-mir-208a) | – | 0.168 | 0.0138 | 0.22 | – | – |
| AAACAUGAGCGAGGAUAUGCGGAGGAUUACCCUGUAGAAGGCGCAUGUAAAACAACAUGAGGAUCACCCAUGUCAUGUACAUGU (Eterna round: R96, puzzle: Same State NG 1) | 0.115 | – | – | – | 0.168 | 0.226 |
| AUAAAACAUGAGGAUCACCCAUGUCAACAAAGUCGAGGAUAUGGGCAAAUAAAAUAAGAACCAGAAGGCGAAUAAU [Teenbexe] (Eterna round: R96, puzzle: Same State 1) | 0.207 | – | – | – | 0.0421 | 0.273 |
| AGAUGUUAAUUAGGAUAUGGUCACAUGAGGAUCACCCAUGUAACGAAGAUACGAUGUGGUCAAGACUAGAAGGGAUCGCUAACA [SameState NG2 #73] (Eterna round: R96, puzzle: Same State NG 2) | 0.0474 | – | – | – | 0.0405 | 0.0553 |
| AGAUGGUGUGGAAAGGAUAUACUGUUGAGGACAUGAGGAUCACCCAUGUGGUAGAGGAGGUAAGGGUAGAAGGUUCGGGAUUGGU [JR_SS@_Sub020] (puzzle: Same State 2) | – | 0.0299 | 0.0323 | 0.0416 | – | – |
| AAAUAAAUGACUCAGGAUAUAUCAUAGAAUACAUGAGGAUCACCCAUGUUUUAAUAACAUGUUUGGUAGAAGGGAGUCAAUAAAU [LROPPY Same State 2 - v05_deltaG=1.86] (Eterna round: R96, puzzle: Same State 2) | 0.0781 | – | – | – | 0.0252 | 0.105 |
| GCUGCACAUGAGGAUCACCCAUGUCUUCGGAGUCGAGGAUAUGGUCACUGUAAACAGUGGCCAGAAGGCGAGUAGC [SS1 - Son of Teenbexe v6] (puzzle: Same State 1) | – | 0.0308 | 0.0378 | 0.0323 | – | – |
| ACAUUUAGCUCUUGCACAUGAGGAUCACCCAUGUUCAGUUCACAGGAUAUCUAGUCAAACGGAUCGGAGAAGGGUGGCAGGAGC [Erquzaa] (Eterna round: R96, puzzle: Same State NG 3) | 0.185 | – | – | – | 0.0863 | 0.294 |
| GUUAGGAAUCUAGCUGACAUGAGGAUCACCCAUGUUAGUGGGAAGGAUAUGGUACAGAAACUGUACCAGAAGGUCUUACUGUCU [MOD Omei's SS(NG) 3 AV9] (Eterna round: R96, puzzle: Same State NG 3) | 0.0214 | – | – | – | 0.0238 | 0.0259 |
| AGUCCAGCCUGAGCUGGACAAAAGCAUGUACAUGAGGAUCACCCAUGUUCAUGUACAAGCUUUUUGCUCGUCUUGCC [salish99_208a_r3_107x] (Eterna round: R96, puzzle: Sensor for hsa-mir-208a) | 0.0155 | – | – | – | 0.774 | 0.623 |
| UUGAAGAAUUAAGGAUAUCGAGUCAAGAUGUUAAACAUGAGGAUCACCCAUGUGGGUUGCGGUAUCGAGAAGGUAAAUAACAAG [Mat - Same State NG 2 - JL mod - D53] (Eterna round: R96, puzzle: Same State NG 2) | 0.0236 | – | – | – | 0.0233 | 0.0382 |
| GUAAUCGUUAUAGGAUAUCAUGAGGAUUACCCAUGAGAAGGGUGAUCUCGAUCCAUAUUCAGAAAAUGAAUGUGGAUAGAUUGC [Omei NG1 A v2] (Eterna round: R96, puzzle: Same State NG 1) | 0.292 | – | – | – | 1.01 | 1.15 |
| UGCUAGUGGGUAGGAUAUCUAGGAUAUGGGAAAGACUAAGUCUGUAGGUCACCUAACCCAGAAGGAGAGAAGGACCAUUCAGCU [pwkr ssNG2 2FMN + F9.26] (Eterna round: R96, puzzle: Same State NG 2) | 0.0225 | – | – | – | 0.165 | 0.038 |
| GUAGCAUACCGAGGAUAUUCAUAUUACAUGAGGAUCACCCAUGUUUUAGGCCGAUUACGGCCUUGGGAGAAGGCGGAAUGCUAC [Xeonanis - 20 Mod23] (Eterna round: R96, puzzle: Same State NG 2) | 0.0201 | – | – | – | 0.0138 | 0.0288 |
| AGCGUCCACACAGGAUAUCACCUGCACUGCAGGUGAGAAGGGUGACCGGUGCGCAAUAACGACAUGAGGAUCACCCAUGUAAAA [Vegea] (Eterna round: R96, puzzle: Same State NG 1) | 0.0383 | – | – | – | 0.775 | 0.143 |
| GUCAGCGAUUGAGGAUAUCACGUCGAUUAGACGUGAGAAGGCGAUCAUAACAUGAGGAUCACCCAUGUAUUACAUGAAGCUGAC [SSNG1/5-A2] (Eterna round: R96, puzzle: Same State NG 1) | 0.0175 | – | – | – | 0.0196 | 0.0271 |
| AGAAGACAUGAGGAUCACCCAUGUACAUAAUGAGGAGAAUGGGAGGAUAUGUAGAGAGAGAGGGAGCAGAAGGUCCAGUAUGAA [Default title] (Eterna round: R96, puzzle: Same State NG 3) | 0.0992 | – | – | – | 0.0989 | 0.148 |
| AUUGUUUAUGCAGGAUAUGAUUAACAUGAGGAUCACCCAUGUGGUGUUGUGAGUAAGGAGAGUGAUCAGAAGGGCAUUUUUUUU [JMF's solution 69] (Eterna round: R96, puzzle: Same State NG 2) | 0.273 | – | – | – | 0.735 | 0.411 |
| AACAAUCUAUCUGAGGAUAUCAUGUCAAAGACAUGAGGAUCACCCAUGUACCAGGAAACUGGUUAUGAGAAGGCAGAUAGAUUGA [SS2: 1115] (Eterna round: R96, puzzle: Same State 2) | 0.596 | – | – | – | 0.0482 | 0.932 |
| GGAGCCGGCACCGAGGAUAUUCAUAUUAAAACAUGAGGAUCACCCAUGUAGGCCAGAAGGCCUUGGGAGAAGGCGGAUCGGCUCA [Xeonanis - 6] (puzzle: Same State 2) | – | 0.0295 | 0.376 | 0.491 | – | – |
| CUAUCUACAGGUUGCAGUGCUCGUCUUAUACAUGAGGAUCACCCAUGUUAUAGCCCGGUGCUUGCGCUGGGCUGAUU [JL ViennaUCT Tearor mod 2] (Eterna round: R96, puzzle: Sensor for hsa-mir-208a) | 0.0164 | – | – | – | 0.0409 | 0.0411 |
| AGUCCAGCCUAAGCUGGACAAAAGCAUGUACAUGAGGAUCACCCAUGUCAUGUACAAGCUUUUUGCUCGUCUUAAAA [Mat - hsa-mir-208a - Mod of JL - D4] (puzzle: Sensor for hsa-mir-208a) | – | 0.684 | 0.0161 | 0.55 | – | – |
| CACAUGAGGAUCACCCAUGUGAGGCGGCAAUAAAACCGCGCACAGGAUAUAGCGCUAAGAAUGCGCUAGAAGGGUGAUUAGAAC [Esenla] (Eterna round: R96, puzzle: Same State NG 3) | 0.0104 | – | – | – | 0.746 | 0.0393 |
| AAAAAACAUGAGGAUCACCCAUGUCAAAAGACAUGAGGAUAUGUACAGACUUCGGUCUGUACAGAAGGCAUGUAAA [SS1 - 1015] (Eterna round: R96, puzzle: Same State 1) | 0.241 | – | – | – | 0.0289 | 0.319 |
| UUAAUUAAUUAAUUAUACAUGAGGAUCACCCAUGUAAGUGAUCAGGAUAUCAGCUCGAUUAGAGCUGAGAAGGGAUACAUGAAU [SSNG3/12-A2] (Eterna round: R96, puzzle: Same State NG 3) | 0.0883 | – | – | – | 0.0944 | 0.139 |
| AUAAAACAUGAGGAUCACCCAUGUCAACAAAGUCGAGGAUAUGGGCAAAUAAAAUAAGAACCAGAAGGCGAAUUAU [salish99_ss1_r3_036] (puzzle: Same State 1) | – | 0.0316 | 0.423 | 1.14 | – | – |
| GCUCGCGGCGCAGGAUAUGGGUGCCUGUACAUGAGGAUCACCCAUGUUAAGGGACGGAAAACGAACCAGAAGGGCGUCGCAAGC [Zaorquor] (Eterna round: R96, puzzle: Same State NG 2) | 0.167 | – | – | – | 0.056 | 0.14 |
| ACGCAGCUGGGUGAGGAUAUCGGUGGUAAAACAUGAGGAUCACCCAUGUCCGAAGCUCGGACCUCCGAGAAGGCGCCCGGCUGCG [Soinraesar Omei Mod 1] (puzzle: Same State 2) | – | 0.00547 | 0.00525 | 0.00511 | – | – |
